The values that follow are results of earlier work, collected in publication PMC9866218, “Characterization and Chemical Synthesis of Cm39 (α-KTx 4.8): A Scorpion Toxin That Inhibits Voltage-Gated K^+ Channel KV1.2 and Small- and Intermediate-Conductance Ca^2+-Activated K^+ Channels KCa2.2 and KCa3.1” (Toxins, 2023).

As a reminder, the Kd is the concentration at which binding is half-saturated.

Read-outs that look alike come from different tables or passages of the source.

Series [1] addresses KCa3.1 (Homo sapiens) (UniProt O15554).
For series [2] the target is unchanged. This is another data set of the same source.

KCa3.1 (Homo sapiens), sequence (O15554 whole entry): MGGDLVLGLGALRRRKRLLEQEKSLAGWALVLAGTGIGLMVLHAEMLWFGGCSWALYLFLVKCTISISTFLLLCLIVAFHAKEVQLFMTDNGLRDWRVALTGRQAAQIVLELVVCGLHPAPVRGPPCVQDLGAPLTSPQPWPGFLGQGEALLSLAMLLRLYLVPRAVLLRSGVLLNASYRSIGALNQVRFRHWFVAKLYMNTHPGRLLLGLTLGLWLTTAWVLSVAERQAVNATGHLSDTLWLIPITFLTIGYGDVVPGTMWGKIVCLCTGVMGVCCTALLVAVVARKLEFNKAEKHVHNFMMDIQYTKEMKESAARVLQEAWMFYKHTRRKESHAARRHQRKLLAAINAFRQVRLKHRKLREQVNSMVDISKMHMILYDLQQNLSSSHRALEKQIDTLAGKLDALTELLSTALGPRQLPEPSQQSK
maurotoxin (MTX, α-KTx-6.2), sequence (P80719 whole entry): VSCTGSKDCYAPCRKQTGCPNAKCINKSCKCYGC
charybdotoxin (ChTx, α-KTx-1.1), sequence (P13487 23-59): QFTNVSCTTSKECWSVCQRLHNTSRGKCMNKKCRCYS

Turning to “charybdotoxin (ChTx, α-KTx-1.1) (from UniProt P13487)”, in series [1], the Kd is 5 nM.

For “maurotoxin (MTX, α-KTx-6.2) (from UniProt P80719)”, the Kd in series [2] is 1 nM.
